{"source": "paper PMC4065035", "about": "“A Highly Functional Synthetic Phage Display Library Containing over 40 Billion Human Antibody Clones” (PLoS ONE, 2014)", "binders": {"B1": {"name": "scFv(G5), human antibody G5 in monomeric scFv format (scFv, V domains shown)", "VH": "not shown", "VL": "SSELTQDPAVSVALGQTVRITCQGDSLRSYYASWYQQKPGQAPVLVIYGKNNRPSGIPDRFSGSSSGNTASLTITGAQAEDEADYYCNSSGFPRTLVVFGGGTKLTVL", "notes": "VH of G5; library VH is on the DP47 germline with S52N (numbering of Tomlinson et al.) and a randomised CDR3 (residues 95-100); flexible polypeptide linker that connects VH and VL in the library's scFv format; VL of G5; Library scFv are detected by the anti-myc antibody 9E10; also called G5 antibody clone; anti-BCD antibody G5; source: E. coli (pHEN1 phagemid, IPTG induction), purified over …"}}, "key": {"[1]": {"target": "T1, human recombinant BCD domains of tenascin-C (Homo sapiens, UniProt P24821)", "T1 construct": "tenascin-C, human, alternatively spliced segment of the three fibronectin type-III homology domains B, C and D; AVI-Tag followed by the His-Tag at the C-terminus; Purification of the human construct is not clearly told; also called human BCD; human BCD domain; source: E. coli (pUC119 vector)", "assay": "SPR; Biacore 3000; CM5 chip coated with murine or human recombinant BCD domains of tenascin-C; antibody (monomeric fraction of scFv, or SIP) injected at different concentrations, 10 µL/min; regeneration with 10 mM HCl", "conditions": "both partners purified"}, "[2]": {"target": "T2, murine recombinant BCD domains of tenascin-C (Mus musculus, UniProt Q80YX1)", "T2 construct": "tenascin-C, mouse, alternatively spliced segment of the three fibronectin type-III homology domains B, C and D; A biotinylated version was used for the panning; the Biacore chip was a coated CM5 chip; also called murine BCD; murine BCD antigen; source: E. coli (pQE12 vector), purified over NiNTA resin", "assay": "SPR; Biacore 3000; CM5 chip coated with murine or human recombinant BCD domains of tenascin-C; antibody (monomeric fraction of scFv, or SIP) injected at different concentrations, 10 µL/min; regeneration with 10 mM HCl", "conditions": "both partners purified"}}, "data": [{"binder": "B1", "values": [{"measurement": "Kd", "setting": "[1]", "result": 27, "unit": "nM"}, {"measurement": "koff", "setting": "[1]", "result": 0.003, "unit": "s⁻¹"}, {"measurement": "kon", "setting": "[1]", "result": 110000, "unit": "M⁻¹ s⁻¹"}, {"measurement": "Kd", "setting": "[2]", "result": 31, "unit": "nM"}, {"measurement": "koff", "setting": "[2]", "result": 0.0025, "unit": "s⁻¹"}, {"measurement": "kon", "setting": "[2]", "result": 79000, "unit": "M⁻¹ s⁻¹"}]}]}
